From patent publication US20130302346A1 (LEXICON PHARMACEUTICALS, published 2013) come the findings set out here.

In general, Kd refers to the constant that tells how readily two partners part at equilibrium. Read a low Kd as higher affinity. Broadly, the kon is the rate constant with which the complex forms.

In one assay the target is T1, Human NOTUM (human, UniProt Q6P988 20-496).
T1 construct: also called human notum pectinacetylesterase; recombinant human NOTUM
T1 sequence: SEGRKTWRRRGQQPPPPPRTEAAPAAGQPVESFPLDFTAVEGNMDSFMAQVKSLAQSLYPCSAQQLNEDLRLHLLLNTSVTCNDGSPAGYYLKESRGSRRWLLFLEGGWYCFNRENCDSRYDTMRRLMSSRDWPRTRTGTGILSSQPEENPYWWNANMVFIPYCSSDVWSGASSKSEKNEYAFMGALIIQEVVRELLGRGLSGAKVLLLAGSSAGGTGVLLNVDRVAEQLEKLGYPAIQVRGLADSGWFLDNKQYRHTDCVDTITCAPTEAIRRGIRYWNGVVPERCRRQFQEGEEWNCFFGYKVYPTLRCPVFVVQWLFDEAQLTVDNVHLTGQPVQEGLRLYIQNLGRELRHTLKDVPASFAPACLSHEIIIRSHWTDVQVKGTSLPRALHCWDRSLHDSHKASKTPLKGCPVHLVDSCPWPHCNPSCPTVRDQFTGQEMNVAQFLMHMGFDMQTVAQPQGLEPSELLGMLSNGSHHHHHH
The assay can be described thus: Biacore 3000. The protocol: Binding affinities of certain anti-NOTUM MAbs was determined using a Biacore 3000. In order to obtain meaningful affinity values for binding to multimeric […] NOTUM protein, antibody FAb fragments were generated by digestion of whole IgG with the protease Ficin, followed by removal of undigested IgG and Fc fragments by protein A affinity chromatography. Affinity values for binding of FAbs and whole IgG to human NOTUM corresponded, and their affinity values were in the single to low double digit nM range, as shown in Table 3.

The next assay addresses T2, Mouse NOTUM (mouse, UniProt Q8R116 20-503).
T2 construct: also called recombinant mouse NOTUM
T2 sequence: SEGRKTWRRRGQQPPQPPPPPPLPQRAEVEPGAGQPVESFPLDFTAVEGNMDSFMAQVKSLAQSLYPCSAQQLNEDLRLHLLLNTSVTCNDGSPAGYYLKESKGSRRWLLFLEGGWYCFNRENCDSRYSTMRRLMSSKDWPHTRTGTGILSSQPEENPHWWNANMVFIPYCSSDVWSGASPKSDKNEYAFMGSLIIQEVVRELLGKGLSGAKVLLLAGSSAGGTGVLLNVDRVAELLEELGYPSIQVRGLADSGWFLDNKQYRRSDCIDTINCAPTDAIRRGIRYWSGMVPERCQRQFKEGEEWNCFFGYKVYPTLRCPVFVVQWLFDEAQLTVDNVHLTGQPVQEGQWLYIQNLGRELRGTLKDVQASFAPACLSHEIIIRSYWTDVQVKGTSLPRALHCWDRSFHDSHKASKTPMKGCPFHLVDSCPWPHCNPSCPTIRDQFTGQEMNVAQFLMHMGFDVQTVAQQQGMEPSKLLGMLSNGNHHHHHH
The assay can be described thus: ELISA (column 'Mouse NOTUM binding'). A general note: An ELISA detects its analyte on a solid surface through an enzyme-linked reagent.

The target in the next assay is T3, Human NOTUM D141S (human, UniProt Q6P988 20-496).
T3 construct: Point mutant made by transient transfection
T3 sequence: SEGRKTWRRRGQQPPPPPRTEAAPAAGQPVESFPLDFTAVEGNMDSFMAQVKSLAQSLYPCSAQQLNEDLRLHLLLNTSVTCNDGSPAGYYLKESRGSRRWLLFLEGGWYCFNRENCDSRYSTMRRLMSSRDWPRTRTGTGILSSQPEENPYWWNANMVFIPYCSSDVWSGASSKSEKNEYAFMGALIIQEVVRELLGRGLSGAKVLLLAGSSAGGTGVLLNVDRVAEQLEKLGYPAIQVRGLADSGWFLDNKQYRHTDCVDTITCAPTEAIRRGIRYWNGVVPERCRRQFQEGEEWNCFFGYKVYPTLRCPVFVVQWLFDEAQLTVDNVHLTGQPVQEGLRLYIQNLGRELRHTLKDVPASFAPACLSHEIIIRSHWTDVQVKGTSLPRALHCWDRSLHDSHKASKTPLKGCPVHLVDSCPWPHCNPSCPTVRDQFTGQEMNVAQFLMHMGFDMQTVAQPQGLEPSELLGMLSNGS
Nature of the assay: ELISA.

B1: MAb 1.802 (antibody, V domains shown)
VH: EVQLVESGGGLVKPGGSLKLSCAASGFTFSDYGMHWFRQAPEKGLEWVAYISSGSRTVYYADTVKGRFTISRDNAKNTLSLQMTSLRSEDTAMYYCARKHYNGGYFDVWGTGTTVTVSS
VL: DIVLTQSPASLAVSLGQRATISCRASKIVSTSGYSYMHWYQQKPGQPPKLLIYLASNLESGVPARFSGSGSGTDFTLNIHPVEEEDAATYYCQHSRELPPTFGSGTKLEIKR
notes: Mouse monoclonal antibody from Campaign 1 (raised against human NOTUM), IgG1
In the assay with Human NOTUM, B1 came in with a Kd of 1.42 nM and an on-rate (kon) of 257000 M⁻¹ s⁻¹. In addition, in the assay with Mouse NOTUM, the binding result is reported as “no binding”. Moreover, the binding result with Human NOTUM D141S is reported as “no binding”.

B2: MAb 1.846 (antibody, IgG2b, V domains shown)
VH: EVQLVESGGDLVKPGGSLKLSCAASGFTFSDYGMHWLRQAPEKGLEWVAYISSGSTTLSYANTMKGRFTISRDNAKKTLSLQMTSLRSEDTAIYYCARKNYNGGYFDVWGTGTTVTVSS
VL: DIVLTQSPASLVVSLGQRATISCRASKSVSESGYSYMHWYQQKPGQPPKLLIYLASNLESGVPARFSGSGSGTDFTLNIHPVEEGDATTYYCQHSRVLPPTFGSGTKLEIKR
notes: Mouse monoclonal antibody from Campaign 1, IgG2b
Turning to B2, the binding result in the assay with Mouse NOTUM and with Human NOTUM D141S was “no binding” each time.

B3: MAb 1.815 (antibody, IgG1, V domains shown)
VH: DVQLLESGGGLVQPGGSRKLSCAASGFTFSDFGMHWVRQAPEKGLEWVAYSSSGGTTVYYADTVKGRLTLSRDNSKNTLFLEMTSLRSEDTAMYYCARASYDGGYFDCWGQGTSLTVSS
VL: DIVLTQSPASLAVSLGQRATISCRASKSVSTSGYSYIHWYQQKPGQPPKLLIYLASDLESGVPARFSGSGSGAAFTLNIHPVEEEDAATYYCHHSRELPFTFGSGTKLEIKR
notes: Mouse monoclonal antibody from Campaign 1, IgG1
With B3, the binding result with Mouse NOTUM and with Human NOTUM D141S was “no binding” throughout.
